Earlier results as cited in PMC3440555 (Bioconjugate chemistry, 2012).

Experiments:
[1] = molecular target: melanocortin-1 (MC1) receptor (Mus musculus, UniProt Q01727); conditions: read-out: MC1 receptor binding affinity (IC50 value); B16/F1 melanoma cells
[2] = test system: B16/F1 melanoma-bearing mouse; conditions: flank primary B16/F1 melanoma and B16/F10 pulmonary melanoma metastases; 2 h post-injection
[3] = test system: B16/F1 melanoma-bearing C57 mice

Sequence of melanocortin-1 (MC1) receptor (Q01727 whole entry): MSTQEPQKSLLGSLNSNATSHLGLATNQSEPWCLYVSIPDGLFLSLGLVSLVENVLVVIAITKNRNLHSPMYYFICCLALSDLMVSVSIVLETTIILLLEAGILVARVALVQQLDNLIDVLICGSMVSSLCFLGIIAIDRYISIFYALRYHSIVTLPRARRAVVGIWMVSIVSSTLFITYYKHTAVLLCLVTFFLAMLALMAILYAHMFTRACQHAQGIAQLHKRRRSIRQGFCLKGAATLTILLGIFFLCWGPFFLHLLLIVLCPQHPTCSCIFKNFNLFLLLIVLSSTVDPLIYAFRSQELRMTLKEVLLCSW

DOTA-GGNle-CycMSHhex: non-radiolabeled DOTA-conjugated lactam bridge-cyclized alpha-MSH peptide, DOTA-Gly-Gly-Nle-c[Asp-His-DPhe-Arg-Trp-Lys]-CONH2
IC50 [1]: 2.1 nM

^67Ga-DOTA-Gly-Glu-c[Lys-Nle-Glu-His-DPhe-Arg-Trp-Gly-Arg-Pro-Val-Asp] [^67Ga-DOTA-GlyGlu-CycMSH]
Visualization of melanoma by SPECT/CT [2]: clearly visualized
Decrease of renal uptake by L-lysine co-injection ([3]; 2 h post-injection, melanoma uptake not affected): 69.8%
Renal uptake ([3]; mouse, in vivo, 2 h): 27.55 ± 7.87 %ID/g
Tumor uptake ([3]; mouse, in vivo, 2 h): 12.93 ± 1.63 %ID/g
